Experiments:
[1] = biological target: T1, human TGFβ3, mature dimeric form (human, UniProt P10600 301-412); test: cell-based or functional assay
T1 sequence: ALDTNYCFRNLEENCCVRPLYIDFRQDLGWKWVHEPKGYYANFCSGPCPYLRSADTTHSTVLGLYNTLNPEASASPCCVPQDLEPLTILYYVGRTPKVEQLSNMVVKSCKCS

[2] = biological target: T2, human TGFβ1, mature receptor-binding domain (human, UniProt P01137 279-390); test: cell-based or functional assay
[3] = biological target: T3, human TGFβ2, mature receptor-binding domain (human, UniProt P09858 303-414 (pig entry), The mature TGFβ2 is a disulfide-linked homodimer of this 112-residue chain. The 4A11 epitope spans both monomers (p-1207).); test: cell-based or functional assay
T3 sequence: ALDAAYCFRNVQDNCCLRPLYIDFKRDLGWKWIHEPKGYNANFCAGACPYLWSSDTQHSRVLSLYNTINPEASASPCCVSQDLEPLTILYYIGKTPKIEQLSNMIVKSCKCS

[4] = biological target: T1, human TGFβ3, mature dimeric form; test: SPR
[5] = biological target: T2, human TGFβ1, mature receptor-binding …; test: SPR
[6] = biological target: T3, human TGFβ2, mature receptor-binding …; test: SPR

T2 sequence (P01137 279-390 limits assumed): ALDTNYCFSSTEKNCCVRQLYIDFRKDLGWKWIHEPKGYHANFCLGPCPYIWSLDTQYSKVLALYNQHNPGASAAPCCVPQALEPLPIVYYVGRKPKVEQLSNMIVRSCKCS

Blocking IC50 [1]: 0.04 nM
Blocking IC50 [2]: 0.5 nM
Blocking IC50 [3]: 3.6 nM
Kd [4]: 0.007 nM
Kd [5]: 0.038 nM
Kd [6]: 0.009 nM
B1: 1D11 (antibody, V domains shown)
VH: QVQLQQSGPELVRPGASVKLSCKASGYIFITYWMNWVKQRPGQGLEWIGQIFPASGSTNYNEMFEGKATLTVDTSSSTAYMQLSSLTSEDSAVYYCARGDGNYALDAMDYWGQGTSVTVSS
VL: DIVLTQSPASLAVSLGQRATISCRASESVDSYGNSFMHWYQQKSGQPPKLLIYLASNLESGVPARFSGSGSRTDFTLTIDPVEADDAATYYCQQNNEDPLTFGAGTKLEIK
notes: also called pan-TGFβ antibody 1D11

From US20210301005A1 (Genentech, published 2021)
